Data on three molecules can be found in publication PMC10087552, “Non‐canonical binding of the Chaetomium thermophilum PolD4 N‐terminal PIP motif to PCNA involves Q‐pocket and compact 2‐fork plug interactions but no 3_10 helix” (The Febs Journal, 2022).

For orientation: stoichiometry N means a count of units in the complex or per binding partner.

The target of assay [1] is Chaetomium thermophilum PCNA (proliferating cell nuclear antigen) (Chaetomium thermophilum). Briefly: crystal structure; co-crystallisation of Ct PCNA with the peptide; 0.2 M calcium acetate, 0.1 M sodium cacodylate pH 6.5, 36% PEG 300; 2.45 Å, space group P1, two trimers in the asymmetric unit.
Assay [2] has the same target. Briefly: crystal structure; apo Ct PCNA; 0.1 M PTCP buffer pH 5.0, 25% PEG 1500; 2.34 Å, space group H3, a single chain in the asymmetric unit.
The next assay has as its target human PCNA. As to conditions: human PCNA–p12 PIP peptide interaction; ref [25]; read-out: dissociation constant (K D); cited from earlier work. The method, then:
To examine the interaction between the Ct PolD4 PIP motif and Ct PCNA in greater detail and in the absence of GST, isothermal titration calorimetry (ITC) was used to determine the binding affinity of PCNA for a 15 amino acid synthetic PolD4 PIP peptide (sequence: ^21KHQSTLNFKHRVTKP^35) and the stoichiometry of the interaction (Fig. 4C). The dissociation constant (K D) was determined to be 22 ± 0.6 μM at 25 °C, broadly similar to that reported for the human PCNA–p12 PIP peptide interaction (38 ± 4 μM). The stoichiometry was determined to be 1 : 1 (i.e. 1 peptide : 1 PCNA protomer) indica ... || Three amino acids are key to interactions between Ct PolD4 and Ct PCNA: Gln23, Leu26 and Phe28. All three are strictly conserved in PolD4 proteins from fungal species closely related to C. thermophilum (Fig. 3). The sidechain of Gln23 inserts into the Q‐pocket on PCNA while the sidechains of Leu26 and Phe28 insert into the hydrophobic pocket located under the interdomain connector loop (IDCL) on the surface of PCNA (Figs 5 and 6A, upper left panel). The human p12 protein lacks the glutamine, equivalent to Gln23, that marks the start of the canonical PIP motif (Qxxψxxθθ), instead having a lysin ...

Assay [3] deals with Chaetomium thermophilum PCNA (proliferating cell nuclear antigen) (Chaetomium thermophilum). Briefly: ITC; Ct PolD4 PIP peptide (400 uM) titrated into Ct PCNA (30 uM) in the cell, 25 °C, 50 mM Tris-HCl, 50 mM NaCl, pH 8.0; single-site binding model; duplicate. (In ITC the heat of successive injections is recorded.)

In the case of “Chaetomium thermophilum PCNA (proliferating cell nuclear antigen) (natural protein)”, the stoichiometry N in assay [1] and in assay [2] was 3 protomers throughout.
Take “RKRLITDSYPVV [human p12 PIP peptide, N‐terminal PIP motif peptide of the human Pol δ subunit p12 (PolD4)]”: on human PCNA, the Kd was 38 ± 4 µM.
KHQSTLNFKHRVTKP [Ct PolD4 PIP peptide (residues 21-35 of Chaetomium thermophilum PolD4)]: in assay [3], the Kd was 22 µM and the stoichiometry N (peptide per PCNA protomer) worked out at 1.
